Experimental data from article PMC13623127 (PLOS One, 2026).

T1: A proliferation-inducing ligand (TNF ligand superfamily member 13), recombinant soluble form (human, UniProt O75888 105-250)
T1 construct: A proliferation-inducing ligand (TNF ligand superfamily member 13), human, recombinant soluble form; also called APRIL
T1 sequence (looked up): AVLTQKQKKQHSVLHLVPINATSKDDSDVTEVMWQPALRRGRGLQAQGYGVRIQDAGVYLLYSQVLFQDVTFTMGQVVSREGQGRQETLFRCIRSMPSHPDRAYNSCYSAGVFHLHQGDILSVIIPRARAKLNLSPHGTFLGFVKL

T2: vascular endothelial cell growth inhibitor (TNF ligand superfamily member 15), recombinant soluble form (human, UniProt O95150 72-251)
T2 construct: also called VEGI
T2 sequence (looked up): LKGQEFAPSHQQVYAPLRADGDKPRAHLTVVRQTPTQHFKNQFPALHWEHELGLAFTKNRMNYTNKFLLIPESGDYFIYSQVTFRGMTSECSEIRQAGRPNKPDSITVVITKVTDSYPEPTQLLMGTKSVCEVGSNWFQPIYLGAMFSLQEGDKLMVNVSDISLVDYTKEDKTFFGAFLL

T3: activation-inducible TNF-related ligand (TNF ligand superfamily member 18), recombinant soluble form (human, UniProt Q9UNG2 49-177)
T3 construct: also called AITRL
T3 sequence (looked up): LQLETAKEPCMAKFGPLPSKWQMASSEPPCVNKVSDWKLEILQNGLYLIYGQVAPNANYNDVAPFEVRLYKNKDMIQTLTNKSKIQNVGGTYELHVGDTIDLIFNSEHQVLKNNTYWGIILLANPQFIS

T4: TNF-related weak inducer of apoptosis (TNF ligand superfamily member 12), recombinant soluble form (human, UniProt O43508 94-249)
T4 construct: TNF-related weak inducer of apoptosis (TNF ligand superfamily member 12), human, recombinant soluble form; also called TWEAK
T4 sequence (looked up): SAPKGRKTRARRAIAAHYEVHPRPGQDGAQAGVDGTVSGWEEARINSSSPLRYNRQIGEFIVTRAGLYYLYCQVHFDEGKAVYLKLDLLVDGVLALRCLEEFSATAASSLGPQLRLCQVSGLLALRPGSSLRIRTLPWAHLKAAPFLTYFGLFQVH

B1: recombinant tag-free human S100A2 (natural protein)
chain: not shown
notes: S100A2, human, recombinant, tag-free; Tag-free
B2: recombinant tag-free human S100P (natural protein, UniProt P25815 1-95, looked up)
chain: MTELETAMGMIIDVFSRYSGSEGSTQTLTKGELKVLMEKELPGFLQSGKDKDAVDKLLKDLDANGDAQVDFSEFIVFVAAITSACHKYFEKAGLK
notes: S100P, human, recombinant, tag-free; Tag-free
B3: recombinant tag-free human S100B (natural protein, UniProt P04271 1-92, looked up)
chain: MSELEKAMVALIDVFHQYSGREGDKHKLKKSELKELINNELSHFLEEIKEQEVVDKVMETLDNDGDGECDFQEFMAFVAMVTTACHEFFEHE
notes: S100B, human, recombinant, tag-free; Tag-free
B4: recombinant tag-free human S100A5 (natural protein, UniProt P33763 1-92, looked up)
chain: METPLEKALTTMVTTFHKYSGREGSKLTLSRKELKELIKKELCLGEMKESSIDDLMKSLDKNSDQEIDFKEYSVFLTMLCMAYNDFFLEDNK
notes: S100A5, human, recombinant, tag-free; Tag-free

Experiments:
Assay in all cases: SPR; TNFSF member immobilised on ProteOn GLH chip by amine coupling (up to 5,000-14,500 RU); S100 analyte 62.5 nM to 16 uM, 300 s at 30 uL/min; 25°C; 10 mM HEPES-NaOH, 150 mM NaCl, 0.05% TWEEN 20, 1 mM CaCl2, pH 7.4; heterogeneous ligand, one-site or two-state model; constants averaged over analyte concentrations (SD, n = 2-9)
Settings in all cases: both partners purified
[1] = molecular target: T1, A proliferation-inducing ligand (TNF …)
[2] = molecular target: T2, vascular endothelial cell growth …
[3] = molecular target: T3, activation-inducible TNF-related ligand …
[4] = molecular target: T4, TNF-related weak inducer of apoptosis …

Binder	Kd [1]	koff [1]	Kd [2]	koff [2]	Kd [3]	koff [3]	Kd [4]	koff [4]
B1	684 nM	0.00122 s⁻¹						
B2			11.1 µM	0.0123 s⁻¹				
B3					12 µM	0.00626 s⁻¹		
B4	11 nM	4.85e-06 s⁻¹			0.409 µM	0.000275 s⁻¹	75.7 nM	3.29e-05 s⁻¹
